The target in this experiment is 53BP1 fragment (a.a. 1221-1718) fused to an adenylate cyclase fragment (two-hybrid) (UniProt Q12888). The experiment in a line: cell-based or functional assay.
The substance “i53 + N25E two-hybrid fusion (designed binder)” yielded an Experiment 1 Average Enrichment of 0.56 log2, an Experiment 1 Rep 1 Enrichment of 0.28 log2, an Experiment 1 Rep 2 Enrichment of 0.84 log2 and an Experiment 2 Average Enrichment of 0.62 log2. This substance also yielded an Experiment 2 Rep 1 Enrichment of 0.61 log2 and an Experiment 2 Rep 2 Enrichment of 0.64 log2.
In the case of “i53 + N25F two-hybrid fusion (designed binder)”, the Experiment 1 Average Enrichment was determined as 0.38 log2, the Experiment 1 Rep 1 Enrichment stood at 0.42 log2, the Experiment 1 Rep 2 Enrichment came out at 0.34 log2 and the Experiment 2 Average Enrichment is -0.04 log2. This substance showed an Experiment 2 Rep 1 Enrichment of 0.12 log2 and an Experiment 2 Rep 2 Enrichment of -0.2 log2.
Consider “i53 + N25G two-hybrid fusion (designed binder)”, for which the Experiment 1 Average Enrichment was 0.71 log2, the Experiment 1 Rep 1 Enrichment came to 1.06 log2, the Experiment 1 Rep 2 Enrichment came out at 0.35 log2 and the Experiment 2 Average Enrichment was determined as 0.38 log2. The substance further came in with an Experiment 2 Rep 1 Enrichment of 0.57 log2 and an Experiment 2 Rep 2 Enrichment of 0.19 log2.
In turn, “i53 + N25I two-hybrid fusion (designed binder)” registered an Experiment 1 Average Enrichment of 0.83 log2, an Experiment 1 Rep 1 Enrichment of 0.85 log2, an Experiment 1 Rep 2 Enrichment of 0.81 log2 and an Experiment 2 Average Enrichment of 0.4 log2. This substance also showed an Experiment 2 Rep 1 Enrichment of 0.41 log2 and an Experiment 2 Rep 2 Enrichment of 0.39 log2.
As to “i53 + N25K two-hybrid fusion (designed binder)”, the Experiment 1 Average Enrichment is 0.32 log2, the Experiment 1 Rep 1 Enrichment turned out to be 0.11 log2, the Experiment 1 Rep 2 Enrichment stood at 0.54 log2 and the Experiment 2 Average Enrichment came to 0.21 log2. In addition, the Experiment 2 Rep 1 Enrichment was determined as 0.17 log2 and the Experiment 2 Rep 2 Enrichment is 0.24 log2.
Turning to “i53 + N25L two-hybrid fusion (designed binder)”, the Experiment 1 Average Enrichment was found to be 0.43 log2, the Experiment 1 Rep 1 Enrichment is 0.47 log2, the Experiment 1 Rep 2 Enrichment is 0.39 log2 and the Experiment 2 Average Enrichment stood at 0.23 log2. Besides, the Experiment 2 Rep 1 Enrichment came out at 0.26 log2 and the Experiment 2 Rep 2 Enrichment was 0.19 log2.
“i53 + N25M two-hybrid fusion (designed binder)”: the Experiment 1 Average Enrichment turned out to be 0.5 log2, the Experiment 1 Rep 1 Enrichment is 0.5 log2, the Experiment 1 Rep 2 Enrichment amounted to 0.5 log2 and the Experiment 2 Average Enrichment worked out at 0.45 log2. This substance displayed an Experiment 2 Rep 1 Enrichment of 0.46 log2 and an Experiment 2 Rep 2 Enrichment of 0.43 log2.
With “i53 + N25Q two-hybrid fusion (designed binder)”, the Experiment 1 Average Enrichment came to 0.72 log2, the Experiment 1 Rep 1 Enrichment came to 0.24 log2, the Experiment 1 Rep 2 Enrichment was found to be 1.21 log2 and the Experiment 2 Average Enrichment amounted to 0.18 log2. In addition, the Experiment 2 Rep 1 Enrichment came to 0.15 log2 and the Experiment 2 Rep 2 Enrichment was 0.22 log2.
In the case of “i53 + N25R two-hybrid fusion (designed binder)”, the Experiment 1 Average Enrichment worked out at 0.31 log2, the Experiment 1 Rep 1 Enrichment worked out at 0.25 log2, the Experiment 1 Rep 2 Enrichment is 0.36 log2 and the Experiment 2 Average Enrichment was determined as 0.29 log2. This substance also showed an Experiment 2 Rep 1 Enrichment of 0.25 log2 and an Experiment 2 Rep 2 Enrichment of 0.34 log2.
Substance “i53 + N25S two-hybrid fusion (designed binder)” came in with an Experiment 1 Average Enrichment of 0.26 log2, an Experiment 1 Rep 1 Enrichment of 0.18 log2, an Experiment 1 Rep 2 Enrichment of 0.34 log2 and an Experiment 2 Average Enrichment of 0.33 log2. Further, the Experiment 2 Rep 1 Enrichment came to 0.27 log2 and the Experiment 2 Rep 2 Enrichment is 0.38 log2.
“i53 + N25T two-hybrid fusion (designed binder)”: the Experiment 1 Average Enrichment is 0.12 log2, the Experiment 1 Rep 1 Enrichment was -0.19 log2, the Experiment 1 Rep 2 Enrichment came out at 0.44 log2 and the Experiment 2 Average Enrichment was 0.29 log2. Also, the Experiment 2 Rep 1 Enrichment was found to be 0.33 log2 and the Experiment 2 Rep 2 Enrichment is 0.24 log2.

The values above are taken from patent US20230135471A1, “UBIQUITIN VARIANTS WITH IMPROVED AFFINITY FOR 53BP1” (Integrated DNA Technologies, Inc., priority 2021, published 2023).
